Substitutions are numbered along the chain they refer to. In names and notes the source's numbering stands.
T1: GkDnaC replicative helicase WT (Geobacillus kaustophilus HTA426, UniProt Q5KU75 1-454)
T1 sequence: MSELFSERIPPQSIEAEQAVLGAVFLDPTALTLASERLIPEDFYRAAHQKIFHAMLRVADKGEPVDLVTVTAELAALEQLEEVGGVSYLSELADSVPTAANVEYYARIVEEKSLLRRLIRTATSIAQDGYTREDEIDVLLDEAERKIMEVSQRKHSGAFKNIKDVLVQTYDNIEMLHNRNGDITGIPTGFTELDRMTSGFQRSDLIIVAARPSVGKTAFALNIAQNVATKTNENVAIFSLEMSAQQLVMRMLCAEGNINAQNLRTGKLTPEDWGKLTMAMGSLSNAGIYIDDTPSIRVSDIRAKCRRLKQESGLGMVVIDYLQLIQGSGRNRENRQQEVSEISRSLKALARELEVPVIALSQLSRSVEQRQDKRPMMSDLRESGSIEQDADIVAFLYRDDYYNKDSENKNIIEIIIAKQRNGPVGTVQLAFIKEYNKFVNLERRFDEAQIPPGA

B1: GkDnaC R145K146A double mutant (enzyme, Geobacillus kaustophilus HTA426, UniProt Q5KU75 1-454, looked up)
chain: T1 sequence with R145A, K146A
B2: GkDnaC R117A (enzyme, Geobacillus kaustophilus HTA426, UniProt Q5KU75 1-454, looked up)
chain: T1 sequence with R117A
B3: GkDnaC R332A (enzyme, Geobacillus kaustophilus HTA426, UniProt Q5KU75 1-454, looked up)
chain: T1 sequence with R332A
B4: GkDnaC R145A (enzyme, Geobacillus kaustophilus HTA426, UniProt Q5KU75 1-454, looked up)
chain: T1 sequence with R145A
B5: GkDnaC R330A (enzyme, Geobacillus kaustophilus HTA426, UniProt Q5KU75 1-454, looked up)
chain: T1 sequence with R330A
B6: GkDnaC K50A (enzyme, Geobacillus kaustophilus HTA426, UniProt Q5KU75 1-454, looked up)
chain: T1 sequence with K50A
B7: GkDnaC R120A (enzyme, Geobacillus kaustophilus HTA426, UniProt Q5KU75 1-454, looked up)
chain: T1 sequence with R120A
B8: GkDnaC R344A (enzyme, Geobacillus kaustophilus HTA426, UniProt Q5KU75 1-454, looked up)
chain: T1 sequence with R344A
B9: Geobacillus kaustophilus HTA426 DnaC helicase, wild type (enzyme, UniProt Q5KU75 1-454, looked up)
chain: T1 sequence

target: T1, GkDnaC replicative helicase WT; assay: X-ray crystal structure

Binder | binding result
TTTTTTTTTTTTTTT (ssDNA) [(dT)15] | binds

Target: the molecule itself
Assay: SEC

Binder | stoichiometry N
B1 | 6
B2 | 6
B3 | 6
B4 | 6
B5 | 6
B6 | 6
B7 | 6
B8 | 6

Target: the molecule itself
Assay: crystal structure

Binder | stoichiometry N
B9 | 6

Reference: paper PMC2647316 (Nucleic Acids Research, 2008)
